These results are taken from US8658372.

The assay has as its target T1, botulinum toxoid B, P10844.
T1 chain: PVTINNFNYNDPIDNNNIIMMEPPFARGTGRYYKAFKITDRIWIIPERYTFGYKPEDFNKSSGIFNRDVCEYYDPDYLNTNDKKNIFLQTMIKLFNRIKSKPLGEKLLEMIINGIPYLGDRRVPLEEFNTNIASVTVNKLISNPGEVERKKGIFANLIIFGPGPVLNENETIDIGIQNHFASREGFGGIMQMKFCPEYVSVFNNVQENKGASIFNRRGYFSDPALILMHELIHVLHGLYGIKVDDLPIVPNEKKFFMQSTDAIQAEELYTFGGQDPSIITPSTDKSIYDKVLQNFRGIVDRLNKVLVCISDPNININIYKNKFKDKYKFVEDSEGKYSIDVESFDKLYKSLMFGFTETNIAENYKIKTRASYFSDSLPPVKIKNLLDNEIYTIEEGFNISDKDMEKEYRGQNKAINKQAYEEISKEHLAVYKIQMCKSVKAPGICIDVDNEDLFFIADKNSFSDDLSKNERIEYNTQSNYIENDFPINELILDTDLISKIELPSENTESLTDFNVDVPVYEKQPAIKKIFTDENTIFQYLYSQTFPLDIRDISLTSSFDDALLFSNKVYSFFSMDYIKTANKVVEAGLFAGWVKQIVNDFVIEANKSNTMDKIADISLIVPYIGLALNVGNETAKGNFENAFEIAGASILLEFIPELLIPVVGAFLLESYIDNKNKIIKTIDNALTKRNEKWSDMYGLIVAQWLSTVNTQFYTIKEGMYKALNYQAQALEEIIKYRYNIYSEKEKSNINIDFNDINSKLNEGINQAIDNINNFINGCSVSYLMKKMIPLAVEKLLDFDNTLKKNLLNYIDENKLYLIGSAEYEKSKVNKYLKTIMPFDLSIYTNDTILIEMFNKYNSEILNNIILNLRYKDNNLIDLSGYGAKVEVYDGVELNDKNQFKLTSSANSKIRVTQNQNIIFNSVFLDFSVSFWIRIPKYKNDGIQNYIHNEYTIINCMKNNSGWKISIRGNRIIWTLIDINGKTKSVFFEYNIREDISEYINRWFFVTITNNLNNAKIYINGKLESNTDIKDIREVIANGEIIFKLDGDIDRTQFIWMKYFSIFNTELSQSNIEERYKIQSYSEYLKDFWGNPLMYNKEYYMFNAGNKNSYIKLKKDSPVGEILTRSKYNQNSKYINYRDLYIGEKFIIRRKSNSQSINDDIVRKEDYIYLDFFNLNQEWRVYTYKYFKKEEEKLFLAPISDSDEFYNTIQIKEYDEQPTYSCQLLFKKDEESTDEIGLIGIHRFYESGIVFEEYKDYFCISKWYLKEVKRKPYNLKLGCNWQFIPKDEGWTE

GIGAVLKVLTTGLPALISWIKRKRQQ (modifications not checked) [Melittin] returned a limit of detection of under 5 ng/mL.
